Patent US20250242012A1

Biological target: soluble HRP-conjugated spike-RBD construct (HRP-RBD) of the SARS-CoV-2 neutralizing antibody ELISA a (SARS-CoV-2) (UniProt P0DTC2)

“positive control reagent of the SARS-CoV-2 neutralizing antibody ELISA assay kit (Creative Diagnostics)” was tested, and the percent inhibition was 82.5%.
